The target of the assay is GST-fusion protein containing the UBA domain of Dsk2p (residues 328–373) (UniProt P48510). The assay is described as follows: pull-down.

Percent of total cellular GLUT4 pulled down by GST–UBA (taken as ubiquitinated) data for one substance are collected here from paper PMC3152195.

Sequence of UniProt P48510 (P48510 328-373): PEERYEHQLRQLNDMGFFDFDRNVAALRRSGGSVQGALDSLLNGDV

Turning to “endogenous GLUT4 in 3T3-L1 adipocytes (ubiquitinated) (from UniProt P14142 1-509) (natural protein)”, the percent of total cellular GLUT4 pulled down by GST–UBA (taken as ubiquitinated) stood at 0.1%.
